From patent publication US20020164702A1

Biological target: endogenous mouse MuSK on C2C12 myotubes or primary mouse myotubes (mouse) (UniProt Q61006)
Test: cell-based or functional assay

Chain of UniProt Q61006 (Q61006 22-868): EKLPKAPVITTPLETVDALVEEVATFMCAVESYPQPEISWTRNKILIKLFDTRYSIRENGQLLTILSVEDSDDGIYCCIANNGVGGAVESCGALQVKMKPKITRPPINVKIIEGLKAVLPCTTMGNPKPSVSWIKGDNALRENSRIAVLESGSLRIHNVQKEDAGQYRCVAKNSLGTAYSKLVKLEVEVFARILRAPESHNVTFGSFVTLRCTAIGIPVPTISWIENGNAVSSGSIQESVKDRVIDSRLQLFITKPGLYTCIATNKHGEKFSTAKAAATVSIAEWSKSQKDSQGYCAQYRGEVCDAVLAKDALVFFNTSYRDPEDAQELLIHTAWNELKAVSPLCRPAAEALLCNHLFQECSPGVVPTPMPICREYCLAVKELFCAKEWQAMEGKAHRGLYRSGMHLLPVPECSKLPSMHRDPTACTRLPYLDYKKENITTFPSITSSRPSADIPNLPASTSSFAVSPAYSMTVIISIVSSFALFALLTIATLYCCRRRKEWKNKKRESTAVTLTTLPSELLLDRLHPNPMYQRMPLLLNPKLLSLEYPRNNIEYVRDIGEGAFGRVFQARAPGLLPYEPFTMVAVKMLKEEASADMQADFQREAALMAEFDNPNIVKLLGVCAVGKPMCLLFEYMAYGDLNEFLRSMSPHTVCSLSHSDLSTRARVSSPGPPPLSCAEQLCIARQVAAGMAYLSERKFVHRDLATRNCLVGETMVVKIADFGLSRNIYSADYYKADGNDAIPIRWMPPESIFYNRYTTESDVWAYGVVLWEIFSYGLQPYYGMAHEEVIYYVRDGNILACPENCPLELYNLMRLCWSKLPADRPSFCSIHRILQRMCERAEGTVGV

In the case of “agrin (isoform not stated at that place) (ligand)”, the tyrosine phosphorylation of MuSK in myotubes, dose is reported as 1 nM.
